Sequences and labels used below:
B1: mut-MGLL 9-297, L169S, L176S: truncated human MGLL 9-297 with L169S, L176S (protein, UniProt Q99685 9-297, looked up, variant L169S L176S)
chain: RTPQSIPYQDLPHLVNADGQYLFCRYWKPTGTPKALIFVSHGAGEHSGRYEELARMLMGLDLLVFAHDHVGHGQSEGERMVVSDFHVFVRDVLQHVDSMQKDYPGLPVFLLGHSMGGAIAILTAAERPGHFAGMVLISPLVLANPESATTFKVLAAKVLNSVLPNLSSGPIDSSVLSRNKTEVDIYNSDPLICRAGLKVCFGIQLLNAVSRVERALPKLTVPFLLLQGSADRLCDSKGAYLLMELAKSQDKTLKIYEGAYHVLHKELPEVTNSVFHEINMWVSQRTATA
B2: mut-MGLL 1-303, L171Q: human MGLL 1-303 with cap-domain mutation L171Q (protein, UniProt Q99685 1-303, looked up, variant L171Q)
Monoglyceride lipase: MPEESSPRRTPQSIPYQDLPHLVNADGQYLFCRYWKPTGTPKALIFVSHGAGEHSGRYEELARMLMGLDLLVFAHDHVGHGQSEGERMVVSDFHVFVRDVLQHVDSMQKDYPGLPVFLLGHSMGGAIAILTAAERPGHFAGMVLISPLVLANPESATTFKVLAAKVLNLVQPNLSLGPIDSSVLSRNKTEVDIYNSDPLICRAGLKVCFGIQLLNAVSRVERALPKLTVPFLLLQGSADRLCDSKGAYLLMELAKSQDKTLKIYEGAYHVLHKELPEVTNSVFHEINMWVSQRTATAGTASPP
B3: mut-MGLL.1-303, L169S, L176S, K160A: human MGLL 1-303 with L169S, L176S and surface mutation K160A (protein)
chain: MPEESSPRRTPQSIPYQDLPHLVNADGQYLFCRYWKPTGTPKALIFVSHGAGEHSGRYEELARMLMGLDLLVFAHDHVGHGQSEGERMVVSDFHVFVRDVLQHVDSMQKDYPGLPVFLLGHSMGGAIAILTAAERPGHFAGMVLISPLVLANPESATTFAVLAAKVLNSVLPNLSSGPIDSSVLSRNKTEVDIYNSDPLICRAGLKVCFGIQLLNAVSRVERALPKLTVPFLLLQGSADRLCDSKGAYLLMELAKSQDKTLKIYEGAYHVLHKELPEVTNSVFHEINMWVSQRTATAGTASPP
B4: mut-MGLL 1-303, L171Q, L174Q: human MGLL 1-303 with cap-domain mutations L171Q, L174Q (protein, UniProt Q99685 1-303, looked up, variant L171Q L174Q)
Monoglyceride lipase: MPEESSPRRTPQSIPYQDLPHLVNADGQYLFCRYWKPTGTPKALIFVSHGAGEHSGRYEELARMLMGLDLLVFAHDHVGHGQSEGERMVVSDFHVFVRDVLQHVDSMQKDYPGLPVFLLGHSMGGAIAILTAAERPGHFAGMVLISPLVLANPESATTFKVLAAKVLNLVQPNQSLGPIDSSVLSRNKTEVDIYNSDPLICRAGLKVCFGIQLLNAVSRVERALPKLTVPFLLLQGSADRLCDSKGAYLLMELAKSQDKTLKIYEGAYHVLHKELPEVTNSVFHEINMWVSQRTATAGTASPP
B5: mut-MGLL 1-303, L167Q, L171Q: human MGLL 1-303 with cap-domain mutations L167Q, L171Q (protein, UniProt Q99685 1-303, looked up, variant L167Q L171Q)
Monoglyceride lipase: MPEESSPRRTPQSIPYQDLPHLVNADGQYLFCRYWKPTGTPKALIFVSHGAGEHSGRYEELARMLMGLDLLVFAHDHVGHGQSEGERMVVSDFHVFVRDVLQHVDSMQKDYPGLPVFLLGHSMGGAIAILTAAERPGHFAGMVLISPLVLANPESATTFKVLAAKVQNLVQPNLSLGPIDSSVLSRNKTEVDIYNSDPLICRAGLKVCFGIQLLNAVSRVERALPKLTVPFLLLQGSADRLCDSKGAYLLMELAKSQDKTLKIYEGAYHVLHKELPEVTNSVFHEINMWVSQRTATAGTASPP
B6: mut-MGLL. 1-303, L167Q, L174Q: human MGLL 1-303 with cap-domain mutations L167Q, L174Q (protein, UniProt Q99685 1-303, looked up, variant L167Q L174Q)
Monoglyceride lipase: MPEESSPRRTPQSIPYQDLPHLVNADGQYLFCRYWKPTGTPKALIFVSHGAGEHSGRYEELARMLMGLDLLVFAHDHVGHGQSEGERMVVSDFHVFVRDVLQHVDSMQKDYPGLPVFLLGHSMGGAIAILTAAERPGHFAGMVLISPLVLANPESATTFKVLAAKVQNLVLPNQSLGPIDSSVLSRNKTEVDIYNSDPLICRAGLKVCFGIQLLNAVSRVERALPKLTVPFLLLQGSADRLCDSKGAYLLMELAKSQDKTLKIYEGAYHVLHKELPEVTNSVFHEINMWVSQRTATAGTASPP
B7: mut-MGLL.1-303, L169S, L176S, K165A: human MGLL 1-303 with L169S, L176S and surface mutation K165A (protein)
chain: MPEESSPRRTPQSIPYQDLPHLVNADGQYLFCRYWKPTGTPKALIFVSHGAGEHSGRYEELARMLMGLDLLVFAHDHVGHGQSEGERMVVSDFHVFVRDVLQHVDSMQKDYPGLPVFLLGHSMGGAIAILTAAERPGHFAGMVLISPLVLANPESATTFKVLAAAVLNSVLPNLSSGPIDSSVLSRNKTEVDIYNSDPLICRAGLKVCFGIQLLNAVSRVERALPKLTVPFLLLQGSADRLCDSKGAYLLMELAKSQDKTLKIYEGAYHVLHKELPEVTNSVFHEINMWVSQRTATAGTASPP
B8: mut-MGLL 1-303, L169S, L176S, K36A: human MGLL 1-303 with cap mutations L169S, L176S and surface mutation K36A (protein)
chain: GMPEESSPRRTPQSIPYQDLPHLVNADGQYLFCRYWAPTGTPKALIFVSHGAGEHSGRYEELARMLMGLDLLVFAHDHVGHGQSEGERMVVSDFHVFVRDVLQHVDSMQKDYPGLPVFLLGHSMGGAIAILTAAERPGHFAGMVLISPLVLANPESATTFKVLAAKVLNSVLPNLSSGPIDSSVLSRNKTEVDIYNSDPLICRAGLKVCFGIQLLNAVSRVERALPKLTVPFLLLQGSADRLCDSKGAYLLMELAKSQDKTLKIYEGAYHVLHKELPEVTNSVFHEINMWVSQRTATAGTASPP
B9: mut-MGLL 9-303, L169S, L176S: N-terminally truncated human MGLL 9-303 with L169S, L176S (protein, UniProt Q99685 9-303, looked up, variant L169S L176S)
chain: RTPQSIPYQDLPHLVNADGQYLFCRYWKPTGTPKALIFVSHGAGEHSGRYEELARMLMGLDLLVFAHDHVGHGQSEGERMVVSDFHVFVRDVLQHVDSMQKDYPGLPVFLLGHSMGGAIAILTAAERPGHFAGMVLISPLVLANPESATTFKVLAAKVLNSVLPNLSSGPIDSSVLSRNKTEVDIYNSDPLICRAGLKVCFGIQLLNAVSRVERALPKLTVPFLLLQGSADRLCDSKGAYLLMELAKSQDKTLKIYEGAYHVLHKELPEVTNSVFHEINMWVSQRTATAGTASPP

This series concerns MGLL. Briefly: Michaelis-Menten kinetics, hydrolysis of 4-methylcoumarin butyrate (4MC-B). The series is classed as biochemical, human. To be noted: substrate 4MC-B; 4-5 nM MGLL, 20 mM Pipes pH 7, 150 mM NaCl, 37° C.; average of 2 or 4 assays. From the text:
A small fluorescent substrate, 4-methyl coumarin butyrate (4MC-B) was used to compare the activity of the engineered mutants to the activity of wt-MGLL (hMGLL 1-303) (SEQ ID NO: 3). The catalytic efficiency (kcat/KM) for the hydrolysis of the 4MC-B was similar for wt-MGLL (hMGLL 1-303) (SEQ ID NO: 3) and all MGLL mutants tested (Table 2). A larger more aliphatic fluorescent substrate, Coumarin Arachidonate (C-A), structurally more closely related to the MGLL natural substrate, 2-AG, was used to compare the activity of wt-MGLL (hMGLL 1-303) (SEQ ID NO: 3) to TEV protease cleaved mut-MGLL (hMGLL 1-303 L169S, L176S) (SEQ ID NO: 5).
The Michaelis-Menten parameters for the hydrolysis of 4-methylcoumarin butyrate (4MC-B) and coumarin arachidonate (C-A) substrate were determined using 4-5 nM of MGLL in 20 mM Pipes pH 7 and 150 mM NaCl at 37° C. The change in fluorescence due to substrate hydrolysis was monitored using excitation/emission wavelengths of 335/440 in a Safire II instrument from Tecan. The hyperbolic rates versus substrate concentration curves for the hydrolysis of 4MC-B were fit to the Michaelis-Menten equation using Excel.
As usually defined, the Km is the substrate concentration at which the rate is half of its maximum. Turning to B1, the Kcat was determined as 0.433 s⁻¹ and the Michaelis constant (Km) came out at 126 µM.
As to B2, the Kcat is 0.85 s⁻¹ and the Km amounted to 105 µM.
For B3, the Kcat came to 0.5 s⁻¹ and the Km was 90 µM.
B4: the Kcat was 0.783 s⁻¹ and the Michaelis-Menten constant (Km) was found to be 89 µM.
Turning to B5, the Kcat came to 0.983 s⁻¹ and the Km amounted to 84 µM.
In the case of B6, the Kcat was 1.17 s⁻¹ and the Km came to 84 µM.
On to B7, for which the Kcat came to 0.45 s⁻¹ and the Michaelis constant (Km) came to 137 µM.
On to B8, for which the Kcat was found to be 0.85 s⁻¹ and the Michaelis constant (Km) was determined as 124 µM.
In the case of B9, the Kcat was determined as 0.45 s⁻¹ and the Michaelis constant (Km) was 88 µM.

For the origin of these results see patent US8067220B2, “Alternative crystal form of monoacylglycerol lipase (MGLL)” (Janssen Pharmaceutica N.V., priority 2008, dated 2011).
